According to patent US20220308056A1 (OMEROS, published 2022):

Biological target: T1, MASP-2/C1-INH complex (fluid-phase, from human serum or plasma) (human, UniProt O00187 16-686; P05155 22-500)
T1 construct: also called C1-INH/MASP-2 complex
Experiment: sandwich ELISA; mAb coated as capture, anti-C1-INH polyclonal detection, mannan-activated human serum
Protocol: The microtiter plate was blocked with 280 μl/well of 1% (w/v) BSA in TBS buffer for 1 hr at RT. (ii) Activated control serum was prepared by diluting pooled normal human serum (NHS) to 20% v/v in Tris-buffered saline (TBS; 10 mM Tris-C₁, 140 mM NaCl, pH 7.4) with 5 mM Ca²⁺. Mannan-agarose (100 uL, Sigma cat. M9917) was washed twice with five volumes of TBS/Ca²⁺, and resuspended to 100 μl in the same buffer. 500 μl of 20% serum was added to the 100 μl of mannan-agarose and incubated at room temperature (RT) with gentle shaking or rotation for 30 minutes. EDTA was then added to an end concentration of 10 mM and incubated for a further 2 minutes. The agarose was then spun down and the activated serum was aspirated off and stored at −20° C. (iii) Serial dilutions were prepared from the activated control serum over a range of 0.1% to 20% and the in TBS/Ca²⁺. The blocking buffer was discarded and 100 ul/well of samples or control sera was added to the plate and incubated for 1 hour at room temperature. […] (v) The plate was then washed 3× as described above. 100 μl/well anti-rabbit HRP (Sigma, 1:5000) was added and incubated for a further 45 min. (vi) The plate was then washed 3× as described above and 100 μl/well TMB substrate was added. When blue color developed, 50 μl/well 2N H₂SO₄ was added to stop the reaction and measured at the OD₄₅₀ nm.

T1 sequence (O00187 16-686, chain 1 of 2): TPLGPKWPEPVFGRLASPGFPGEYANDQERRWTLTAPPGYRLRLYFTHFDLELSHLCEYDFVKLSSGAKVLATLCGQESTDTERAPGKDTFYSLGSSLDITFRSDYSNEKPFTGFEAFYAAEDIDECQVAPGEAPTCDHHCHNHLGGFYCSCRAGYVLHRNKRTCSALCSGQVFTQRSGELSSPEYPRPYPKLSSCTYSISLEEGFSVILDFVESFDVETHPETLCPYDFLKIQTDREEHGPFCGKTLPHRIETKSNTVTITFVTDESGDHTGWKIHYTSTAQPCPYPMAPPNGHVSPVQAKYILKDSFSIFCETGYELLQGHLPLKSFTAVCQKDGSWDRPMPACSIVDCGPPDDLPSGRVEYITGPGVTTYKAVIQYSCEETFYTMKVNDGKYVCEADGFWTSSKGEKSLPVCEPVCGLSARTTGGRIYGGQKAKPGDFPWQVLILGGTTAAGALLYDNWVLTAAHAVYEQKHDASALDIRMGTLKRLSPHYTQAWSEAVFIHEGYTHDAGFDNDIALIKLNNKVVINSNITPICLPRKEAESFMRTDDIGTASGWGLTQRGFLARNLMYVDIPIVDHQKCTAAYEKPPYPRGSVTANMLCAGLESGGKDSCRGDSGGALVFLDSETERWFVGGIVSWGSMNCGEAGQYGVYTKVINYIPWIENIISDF
T1 sequence (P05155 22-500, chain 2 of 2): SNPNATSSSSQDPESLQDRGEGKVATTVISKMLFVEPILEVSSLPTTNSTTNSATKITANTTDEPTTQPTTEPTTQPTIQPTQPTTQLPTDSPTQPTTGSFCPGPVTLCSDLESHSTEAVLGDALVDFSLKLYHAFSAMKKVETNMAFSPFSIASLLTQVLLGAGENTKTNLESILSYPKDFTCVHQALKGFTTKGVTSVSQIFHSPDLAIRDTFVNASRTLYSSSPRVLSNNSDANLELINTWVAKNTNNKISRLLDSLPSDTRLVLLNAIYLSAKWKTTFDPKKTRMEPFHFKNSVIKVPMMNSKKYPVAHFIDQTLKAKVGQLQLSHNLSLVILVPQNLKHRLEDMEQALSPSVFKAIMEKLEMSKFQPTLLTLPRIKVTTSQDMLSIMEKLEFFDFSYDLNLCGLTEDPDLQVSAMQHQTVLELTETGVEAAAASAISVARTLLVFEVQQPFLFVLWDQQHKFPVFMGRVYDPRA

binding result: binds
B1: anti-MASP-2 mAb clone #C7 (antibody, V domains shown)
VH: EVKLVESGGGLVKPGGSLKLSCAASGFTFSSYLMSWVRQTPEKRLEWVATISGGGGNTYHPDSMKGRFTISRDNAKNTLYLQMSSLRSEDTALYYCARHGDFGNYFDYWGQGTTLTVSS
VL: DIVMSQSPSSLAVSAGEKVTMSCKSSQSLLNSGTQKNYLAWYQQKPGQSPKLLIYWASTRESGVPDRFTGSGSGTDFTLTISSVQAEDLAVYYCKQSYNLFTFGAGTKLELKR
notes: From hybridomas of immunized MASP-2 KO mice; also called mAb #C7; mAb #7
